This is an account of results in article PMC2800831.

The Kd is the constant that tells how readily two partners part at equilibrium.

Assay [1] deals with Recombinant mouse fibulin-2 (mouse) (UniProt P37889). The assay can be described thus: SPR. For orientation: SPR reads the build-up and loss of mass on a sensor chip optically.
The target of assay [2] is Recombinant mouse fibulin-5 (mouse) (UniProt Q9WVH9). The assay can be described thus: SPR.
Sequence of UniProt Q9WVH9 (Q9WVH9 24-448): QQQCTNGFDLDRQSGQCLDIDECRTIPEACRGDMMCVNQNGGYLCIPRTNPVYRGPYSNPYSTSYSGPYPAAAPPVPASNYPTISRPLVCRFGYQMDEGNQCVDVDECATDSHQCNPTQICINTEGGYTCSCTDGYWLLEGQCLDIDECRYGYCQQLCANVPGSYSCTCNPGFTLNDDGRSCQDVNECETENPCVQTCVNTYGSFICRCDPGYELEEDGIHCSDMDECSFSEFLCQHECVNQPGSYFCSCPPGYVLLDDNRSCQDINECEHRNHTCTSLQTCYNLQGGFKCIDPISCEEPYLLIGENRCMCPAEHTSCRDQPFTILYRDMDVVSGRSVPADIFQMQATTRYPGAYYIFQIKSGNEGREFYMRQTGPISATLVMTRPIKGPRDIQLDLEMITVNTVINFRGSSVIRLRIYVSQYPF

Sequence of UniProt P37889 (P37889 27-1221): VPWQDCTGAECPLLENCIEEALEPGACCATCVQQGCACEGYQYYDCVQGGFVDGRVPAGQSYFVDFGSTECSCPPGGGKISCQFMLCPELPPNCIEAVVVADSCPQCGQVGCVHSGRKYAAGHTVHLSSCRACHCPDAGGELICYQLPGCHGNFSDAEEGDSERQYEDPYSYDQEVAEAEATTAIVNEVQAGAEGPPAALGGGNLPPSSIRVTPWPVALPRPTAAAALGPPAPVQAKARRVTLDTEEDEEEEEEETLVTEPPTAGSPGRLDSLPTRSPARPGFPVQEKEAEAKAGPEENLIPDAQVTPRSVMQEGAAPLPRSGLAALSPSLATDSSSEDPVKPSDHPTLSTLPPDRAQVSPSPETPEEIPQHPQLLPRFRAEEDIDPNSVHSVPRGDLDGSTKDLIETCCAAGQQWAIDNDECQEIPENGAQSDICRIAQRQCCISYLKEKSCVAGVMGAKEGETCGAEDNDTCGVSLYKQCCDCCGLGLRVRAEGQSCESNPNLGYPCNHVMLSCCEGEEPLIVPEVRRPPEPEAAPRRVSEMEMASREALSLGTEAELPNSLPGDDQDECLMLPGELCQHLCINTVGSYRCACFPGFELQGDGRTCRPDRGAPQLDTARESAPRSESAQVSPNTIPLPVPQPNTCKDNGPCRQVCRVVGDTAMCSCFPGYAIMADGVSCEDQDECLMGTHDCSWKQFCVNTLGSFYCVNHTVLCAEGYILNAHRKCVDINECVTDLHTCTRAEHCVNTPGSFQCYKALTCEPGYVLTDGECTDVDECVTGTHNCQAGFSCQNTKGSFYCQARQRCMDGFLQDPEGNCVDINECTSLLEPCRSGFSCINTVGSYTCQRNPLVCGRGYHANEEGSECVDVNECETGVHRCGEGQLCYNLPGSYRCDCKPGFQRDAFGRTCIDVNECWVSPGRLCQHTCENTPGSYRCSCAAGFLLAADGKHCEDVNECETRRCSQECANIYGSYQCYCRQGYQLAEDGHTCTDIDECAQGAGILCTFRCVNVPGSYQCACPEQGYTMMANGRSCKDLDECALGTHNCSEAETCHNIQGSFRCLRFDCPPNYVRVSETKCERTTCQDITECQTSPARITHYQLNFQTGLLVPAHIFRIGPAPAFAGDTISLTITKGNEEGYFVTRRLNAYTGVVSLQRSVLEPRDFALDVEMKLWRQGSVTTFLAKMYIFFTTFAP

“Recombinant mouse fibulin-5 (from UniProt Q9WVH9 24-448) (natural protein)”: the Kd in assay [1] was found to be 1650 nM.

Take “Recombinant mouse fibulin-2 (from UniProt P37889 27-1221) (natural protein)”: the Kd in assay [2] stood at 100 nM.
